Experimental findings from the supplement of paper PMC10724198 are described below.

This data set concerns Saccharomyces cerevisiae. Nature of the data set: protein stability index of tFT-peptide fusion (C-terminal peptide) (PSI (0-1 scale)); higher = more stable (slower turnover). The settings on record: temperature: 30 C. As for the experimental part:
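MPS profiling in S. cerevisiae of the yeast C-terminome library: the last 12 aa of each annotated ORF are fused to the C-terminus of a sfGFP-mCherry timer, after a GGGS linker. Cells are FACS-sorted into 8 mCherry/sfGFP bins and deep-sequenced. PSI runs from 0 (unstable) to 1 (stable); wild type and das1Δ backgrounds, two technical replicates each.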

Where [1] appears, read: genetic background: das1 deletion.

± gives the standard deviation of the averaged measurements.

With TCEKSKCNCEKC [CRS5 C-terminal 12 aa], the protein stability index under setting [1] worked out at 0.682 ± 0.012 and the protein stability index (genetic background: wild type) worked out at 0.69 ± 0.082.

With TDGSKEDVDALP [ZNF1 C-terminal 12 aa], the protein stability index by setting is: under setting [1], 0.688 ± 0.02; (genetic background: wild type) 0.716 ± 0.039.

Regarding “TEISRHFIVVFV [YHR182C-A C-terminal 12 aa]”, the protein stability index is 0.306 ± 0.0088 under setting [1] and 0.351 ± 0.028 (genetic background: wild type).

Consider TEKDSTTTNYRK [YJL218W C-terminal 12 aa], for which the protein stability index by setting is: under setting [1], 0.702 ± 0.028; (genetic background: wild type) 0.698 ± 0.034.

For TEPESDTEVETS [WHI5 C-terminal 12 aa], the protein stability index worked out at 0.676 ± 0.01 under setting [1] and 0.662 ± 0.013 (genetic background: wild type).

TEPLYILRWLRS [YDR290W C-terminal 12 aa] yielded a protein stability index under setting [1] of 0.678 ± 0.008 and a protein stability index (genetic background: wild type) of 0.313 ± 0.0053.

In the case of TFAKSSRNKSKL [PCS60 C-terminal 12 aa], the protein stability index is, setting by setting: under setting [1], 0.835 ± 0.011; (genetic background: wild type) 0.811 ± 0.073.

Consider TFVDDKLKELPQ [PTP3 C-terminal 12 aa], for which the protein stability index came to 0.719 ± 0.042 under setting [1] and 0.655 ± 0.0034 (genetic background: wild type).

Consider THKQYFWKKPAK [TOS4 C-terminal 12 aa], for which the protein stability index by setting is: under setting [1], 0.707 ± 0.03; (genetic background: wild type) 0.688 ± 0.058.

The sequence TIHTEVNIGIKQ [ENA1 C-terminal 12 aa] showed a protein stability index under setting [1] of 0.7199 ± 0.0013 and a protein stability index (genetic background: wild type) of 0.736 ± 0.027.

TKWHDKFGKLKN [SHE2 C-terminal 12 aa]: the protein stability index is, setting by setting: under setting [1], 0.693 ± 0.024; (genetic background: wild type) 0.6795 ± 0.0042.

On to TLFDLIEKKVTA [TAL1 C-terminal 12 aa], for which the protein stability index is 0.67 ± 0.0085 under setting [1] and 0.652 ± 0.028 (genetic background: wild type).

Turning to TLKKIFSKRSIS [YCL049C C-terminal 12 aa], the protein stability index under setting [1] was 0.722 ± 0.02 and the protein stability index (genetic background: wild type) was 0.4651 ± 0.0019.

Consider TLTQEEINELST [LTE1 C-terminal 12 aa], for which the protein stability index was determined as 0.69603 ± 0.00028 under setting [1] and 0.689 ± 0.041 (genetic background: wild type).

For TNGLINQFKEWM [PGI1 C-terminal 12 aa], the protein stability index is, setting by setting: under setting [1], 0.673 ± 0.015; (genetic background: wild type) 0.736 ± 0.082.

With TPLGPKPDIRPP [GTO3 C-terminal 12 aa], the protein stability index by setting is: under setting [1], 0.712 ± 0.013; (genetic background: wild type) 0.693 ± 0.017.

Regarding “TPLPGLSWPFNE [YIL014C-A C-terminal 12 aa]”, the protein stability index was determined as 0.74 ± 0.021 under setting [1] and 0.74 ± 0.061 (genetic background: wild type).

For the sequence TPVIDFSLKLAH [BNA6 C-terminal 12 aa], the protein stability index by setting is: under setting [1], 0.693 ± 0.017; (genetic background: wild type) 0.7 ± 0.026.

For TQQVVDDVLSRL [LYS12 C-terminal 12 aa], the protein stability index runs as follows: under setting [1], 0.738 ± 0.0082; (genetic background: wild type) 0.732 ± 0.038.

TSSTPLVIVDSK [HXT10 C-terminal 12 aa]: the protein stability index amounted to 0.672 ± 0.013 under setting [1] and 0.713 ± 0.064 (genetic background: wild type).

In the case of TTEKKKKKCVLL [RHO1 C-terminal 12 aa], the protein stability index by setting is: under setting [1], 0.684 ± 0.0099; (genetic background: wild type) 0.6878 ± 0.0017.

TTIKNIDILNRT [SMC4 C-terminal 12 aa]: the protein stability index was 0.717 ± 0.024 under setting [1] and 0.694 ± 0.048 (genetic background: wild type).

With “TTVDRTGNGAFW [YLR154C-H C-terminal 12 aa]”, the protein stability index is, setting by setting: under setting [1], 0.703 ± 0.017; (genetic background: wild type) 0.723 ± 0.036.

The sequence “TVPEFPAPIFPN [YDL159C-B C-terminal 12 aa]” gave a protein stability index under setting [1] of 0.72 ± 0.019 and a protein stability index (genetic background: wild type) of 0.689 ± 0.0079.

As to TVQSKLGDHGFN [PEP7 C-terminal 12 aa], the protein stability index turned out to be 0.679 ± 0.015 under setting [1] and 0.707 ± 0.048 (genetic background: wild type).

On to TYKRIKQDEKTD [ALG12 C-terminal 12 aa], for which the protein stability index amounted to 0.7248 ± 0.0072 under setting [1] and 0.707 ± 0.015 (genetic background: wild type).

Sequence VACNPVAMADHQ [TUS1 C-terminal 12 aa] displayed a protein stability index under setting [1] of 0.71 ± 0.033 and a protein stability index (genetic background: wild type) of 0.677 ± 0.019.

With VADAMLDQGDVF [GDH3 C-terminal 12 aa], the protein stability index by setting is: under setting [1], 0.7137 ± 0.0052; (genetic background: wild type) 0.6894 ± 0.0047.

VDDYVAAGFQTL [SUT2 C-terminal 12 aa] showed a protein stability index under setting [1] of 0.7372 ± 0.0021 and a protein stability index (genetic background: wild type) of 0.714 ± 0.018.

On to “VDFLSKKLLKLR [YFL041W-A C-terminal 12 aa]”, for which the protein stability index is, setting by setting: under setting [1], 0.694 ± 0.0088; (genetic background: wild type) 0.708 ± 0.0078.

For the sequence VDIALYLTRSQT [YGR039W C-terminal 12 aa], the protein stability index by setting is: under setting [1], 0.699 ± 0.017; (genetic background: wild type) 0.694 ± 0.011.

The sequence VEIFVDKLIDFL [THI80 C-terminal 12 aa] gave a protein stability index under setting [1] of 0.674 ± 0.014 and a protein stability index (genetic background: wild type) of 0.656 ± 0.027.

For the sequence VEMAVKFGKNAF [RIB4 C-terminal 12 aa], the protein stability index is 0.696 ± 0.012 under setting [1] and 0.689 ± 0.059 (genetic background: wild type).

Regarding VESKFTEKIKSM [RPC19 C-terminal 12 aa], the protein stability index reads like this: under setting [1], 0.6704 ± 0.0024; (genetic background: wild type) 0.559 ± 0.027.

As to VETELEMVAEKA [YEH1 C-terminal 12 aa], the protein stability index is 0.646 ± 0.0079 under setting [1] and 0.665 ± 0.061 (genetic background: wild type).

As for VFLYRKRIFIKL [GWT1 C-terminal 12 aa], the protein stability index is 0.606 ± 0.021 under setting [1] and 0.485 ± 0.023 (genetic background: wild type).

Consider VFTPFLFGELIG [ERG1 C-terminal 12 aa], for which the protein stability index was 0.718 ± 0.0073 under setting [1] and 0.712 ± 0.035 (genetic background: wild type).

Consider VHDQTNLELYYL [HUB1 C-terminal 12 aa], for which the protein stability index runs as follows: under setting [1], 0.708 ± 0.0075; (genetic background: wild type) 0.6895 ± 0.0058.

On to VHKDLDIKTVTL [PRO2 C-terminal 12 aa], for which the protein stability index under setting [1] stood at 0.691 ± 0.013 and the protein stability index (genetic background: wild type) was 0.671 ± 0.0073.

On to VHKLGWSLSFDA [POR1 C-terminal 12 aa], for which the protein stability index came out at 0.706 ± 0.022 under setting [1] and 0.6642 ± 0.0033 (genetic background: wild type).

As for “VILYRSVMKLSP [YOR073W-A C-terminal 12 aa]”, the protein stability index under setting [1] was 0.646 ± 0.011 and the protein stability index (genetic background: wild type) amounted to 0.66 ± 0.017.

On to VISYLLGADIHF [SMF3 C-terminal 12 aa], for which the protein stability index is, setting by setting: under setting [1], 0.712 ± 0.013; (genetic background: wild type) 0.7135 ± 0.0039.

As to VKDRPRGKDARL [RML2 C-terminal 12 aa], the protein stability index turned out to be 0.727 ± 0.058 under setting [1] and 0.805 ± 0.029 (genetic background: wild type).

Take VKKCWEKEKDGI [MKK2 C-terminal 12 aa]: the protein stability index is, setting by setting: under setting [1], 0.675 ± 0.018; (genetic background: wild type) 0.663 ± 0.026.

As for VLDQITGDLKLY [PTH2 C-terminal 12 aa], the protein stability index came to 0.691 ± 0.014 under setting [1] and 0.6285 ± 0.0052 (genetic background: wild type).

Turning to “VLLIRSDKKKKV [YIL102C-A C-terminal 12 aa]”, the protein stability index came out at 0.71 ± 0.024 under setting [1] and 0.696 ± 0.035 (genetic background: wild type).

For VLSNLAVKALQN [PRM3 C-terminal 12 aa], the protein stability index is 0.68 ± 0.018 under setting [1] and 0.646 ± 0.023 (genetic background: wild type).

The sequence “VMQVQCLFFFIL [YJL156W-A C-terminal 12 aa]” yielded a protein stability index under setting [1] of 0.556 ± 0.019 and a protein stability index (genetic background: wild type) of 0.284 ± 0.0037.

In turn, VNNAPARAKVSK [RCR2 C-terminal 12 aa] had a protein stability index under setting [1] of 0.67539 ± 0.00065 and a protein stability index (genetic background: wild type) of 0.669 ± 0.0023.

On to VPELTEKLGKYK [AIM45 C-terminal 12 aa], for which the protein stability index came to 0.697 ± 0.019 under setting [1] and 0.676 ± 0.026 (genetic background: wild type).

With VRKNVTWNNLWE [CTF18 C-terminal 12 aa], the protein stability index amounted to 0.705 ± 0.013 under setting [1] and 0.682 ± 0.042 (genetic background: wild type).

As to VRKVAQWLQQLT [FSH2 C-terminal 12 aa], the protein stability index is 0.6838 ± 0.0012 under setting [1] and 0.5807 ± 0.0037 (genetic background: wild type).

With VSGFYDHDINGY [APJ1 C-terminal 12 aa], the protein stability index under setting [1] is 0.7529 ± 0.0033 and the protein stability index (genetic background: wild type) amounted to 0.722 ± 0.0078.

For the sequence VSIKKLGRKLEN [FYV6 C-terminal 12 aa], the protein stability index is 0.727 ± 0.023 under setting [1] and 0.6469 ± 0.0013 (genetic background: wild type).

In the case of “VSMKAIFSCMYV [YMR272W-B C-terminal 12 aa]”, the protein stability index was 0.6576 ± 0.0051 under setting [1] and 0.655 ± 0.034 (genetic background: wild type).

For VTGFKDEVLETV [RPS1A C-terminal 12 aa], the protein stability index by setting is: under setting [1], 0.7042 ± 0.001; (genetic background: wild type) 0.682 ± 0.032.

On to VTGSVPAYCDDD [ART5 C-terminal 12 aa], for which the protein stability index reads like this: under setting [1], 0.6825 ± 0.0031; (genetic background: wild type) 0.694 ± 0.011.

On to VTIFTWSSLLFV [TED1 C-terminal 12 aa], for which the protein stability index runs as follows: under setting [1], 0.438 ± 0.0058; (genetic background: wild type) 0.454 ± 0.0084.

Consider VTNPKGRLALEA [RPL32 C-terminal 12 aa], for which the protein stability index is, setting by setting: under setting [1], 0.6613 ± 0.0025; (genetic background: wild type) 0.686 ± 0.026.

In the case of VTQILYTPIESS [SIP2 C-terminal 12 aa], the protein stability index came to 0.679 ± 0.028 under setting [1] and 0.696 ± 0.03 (genetic background: wild type).

Take VTVYGGRSRMSA [YJL152W C-terminal 12 aa]: the protein stability index came to 0.6989 ± 0.0061 under setting [1] and 0.702 ± 0.02 (genetic background: wild type).

Regarding VVGFYFQGALSE [VNX1 C-terminal 12 aa], the protein stability index is 0.673 ± 0.025 under setting [1] and 0.708 ± 0.037 (genetic background: wild type).

In the case of VVIIVPIVVHFS [SNC2 C-terminal 12 aa], the protein stability index by setting is: under setting [1], 0.351 ± 0.012; (genetic background: wild type) 0.425 ± 0.046.

As for VVKRKKVKTKRI [JJJ1 C-terminal 12 aa], the protein stability index runs as follows: under setting [1], 0.689 ± 0.041; (genetic background: wild type) 0.748 ± 0.14.

For the sequence VVNNRIFSGISK [RSM26 C-terminal 12 aa], the protein stability index turned out to be 0.713 ± 0.027 under setting [1] and 0.698 ± 0.018 (genetic background: wild type).

As to VWKRARVDLIAS [POL12 C-terminal 12 aa], the protein stability index reads like this: under setting [1], 0.591 ± 0.019; (genetic background: wild type) 0.51 ± 0.029.

Turning to VWLAAALPLAFI [PRM7 C-terminal 12 aa], the protein stability index was 0.58 ± 0.0063 under setting [1] and 0.56 ± 0.018 (genetic background: wild type).
